Each block holds one molecule with its values, some of them ahead of it.
How the values were obtained:
NsLOX = biological target: T1, NsLOX (Nostoc sphaeroides, UniProt A0A5P8W1C8); test: absorbance at […] nm, Lineweaver-Burk; format: biochemical; conditions: optimum assay conditions: 20 mM Tris-HCl pH 8.0, 15 °C, substrate 20-100 μM
T1 construct: gene GXM_03308; full length, 455 residues (52 kDa) plus 2 kDa His tag from pET-28a(+) NdeI/XhoI, tag kept; codon-optimised synthetic gene; E. coli BL21(DE3); Ni-NTA; about 54 kDa; C-terminal Ile455; no N-terminal PLAT domain
T1 sequence (A0A5P8W1C8 1-455): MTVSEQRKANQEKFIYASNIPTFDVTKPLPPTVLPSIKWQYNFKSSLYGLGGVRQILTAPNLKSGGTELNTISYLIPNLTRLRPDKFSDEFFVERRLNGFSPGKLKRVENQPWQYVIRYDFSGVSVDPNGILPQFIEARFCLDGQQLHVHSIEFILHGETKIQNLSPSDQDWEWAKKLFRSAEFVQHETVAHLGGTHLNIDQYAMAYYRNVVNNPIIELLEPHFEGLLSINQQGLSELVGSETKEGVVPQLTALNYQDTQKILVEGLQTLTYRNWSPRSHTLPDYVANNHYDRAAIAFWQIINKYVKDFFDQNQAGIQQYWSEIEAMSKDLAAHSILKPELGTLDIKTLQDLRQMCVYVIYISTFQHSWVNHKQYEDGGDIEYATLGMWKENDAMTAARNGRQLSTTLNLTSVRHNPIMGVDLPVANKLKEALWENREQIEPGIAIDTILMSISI

purified protein = substrate: CCCCC/C=C\C/C=C\C/C=C\C/C=C\CCCC(=O)O; test: purified protein; format: biochemical, Nostoc sphaeroides; conditions: optimum assay conditions: 20 mM Tris-HCl pH 8.0, 15 °C, substrate 20-100 μM

- Km (NsLOX; Km above tested substrate range): 151 ± 6.39 µM
Molecule: CC/C=C\C/C=C\C/C=C\CCCCCCCC(=O)O [ALA, α-Linolenic acid]

- Km (NsLOX): 19.5 ± 1.24 µM
Molecule: CCCCC/C=C\C/C=C\CCCCCCCC(=O)O [LA, Linoleic acid]

B1: NsLOX (Nostoc sphaeroides CCNUC1) (protein)
chain: MTVSEQRKANQEKFIYASNIPTFDVTKPLPPTVLPSIKWQYNFKSSLYGLGGVRQILTAPNLKSGGTELNTISYLIPNLTRLRPDKFSDEFFVERRLNGFSPGKLKRVENQPWQYVIRYDFSGVSVDPNGILPQFIEARFCLDGQQLHVHSIEFILHGETKIQNLSPSDQDWEWAKKLFRSAEFVQHETVAHLGGTHLNIDQYAMAYYRNVVNNPIIELLEPHFEGLLSINQQGLSELVGSETKEGVVPQLTALNYQDTQKILVEGLQTLTYRNWSPRSHTLPDYVANNHYDRAAIAFWQIINKYVKDFFDQNQAGIQQYWSEIEAMSKDLAAHSILKPELGTLDIKTLQDLRQMCVYVIYISTFQHSWVNHKQYEDGGDIEYATLGMWKENDAMTAARNGRQLSTTLNLTSVRHNPIMGVDLPVANKLKEALWENREQIEPGIAIDTILMSISI
notes: full length, 455 residues (52 kDa) plus 2 kDa His tag from pET-28a(+) NdeI/XhoI, tag kept; codon-optimised synthetic gene; E. coli BL21(DE3); Ni-NTA; about 54 kDa; C-terminal Ile455; no N-terminal PLAT domain
- Km (purified protein): 571.22 ± 26.88 µM
- Vmax (purified protein): 30.6 µM/min
- kcat (purified protein): 7300 ± 145 s⁻¹
- kcat/Km (purified protein): 1.28e+07 M⁻¹ s⁻¹
